This note sets out measurements from article PMC1283526.

In this series the target is T1, GST-ELAV (UniProt P16914 76-483).
T1 sequence: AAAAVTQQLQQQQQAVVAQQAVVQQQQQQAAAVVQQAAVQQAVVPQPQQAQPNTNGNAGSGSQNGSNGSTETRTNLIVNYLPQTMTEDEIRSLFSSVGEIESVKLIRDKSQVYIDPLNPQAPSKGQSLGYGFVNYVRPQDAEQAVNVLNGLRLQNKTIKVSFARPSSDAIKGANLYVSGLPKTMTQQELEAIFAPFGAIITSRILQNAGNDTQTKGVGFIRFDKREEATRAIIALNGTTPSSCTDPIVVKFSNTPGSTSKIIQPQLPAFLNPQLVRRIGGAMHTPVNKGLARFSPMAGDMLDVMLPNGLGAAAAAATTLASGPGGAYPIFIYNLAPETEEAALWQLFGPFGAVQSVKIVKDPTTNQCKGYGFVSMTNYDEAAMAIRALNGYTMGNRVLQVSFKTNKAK
Put plainly: competition.

B1: SSE 20mer (ssRNA)
RNA: AUUUUUAUUUGUUAUUUUUU
On to B1, for which the binding result is “binds”.
